# Measurements as given in publication PMC9701752.
# B1: PTPRJ transmembrane domain construct for the AraTM assay, wild type (five extracellular residues, putative TMD, 20 cytoplasmic juxtamembrane residues) [human] / FLT3 transmembrane domain construct for the AraTM assay (five … (parent)
# chain 1: QDPGVICGAVFGCIFGALVIVTVGGFIFWRKKRKDAKNNEVSFSQIKP
# chain 2: QDNISFYATIGVCLLFIVVLTLLICHKYKKQFRYESQLQMVQVTG
# Variants of: B1
# Experiment: DN-AraTM assay
# Settings: with FLT3 transmembrane domain construct for the AraTM assay (five extracellular residues, putative TMD, 20 cytoplasmic juxtamembrane residues); FLT3-AraC co-expressed with PTPRJ TMD-AraC* competitor; n=9; parent: 0.8; read off a plot
row,response (normalized GFP signal (FLT3 alone = 1)),Variant
1,0.56,chain 1 QDPGVICGAVFLCIFGALVIVTVGGFIFWRKKRKDAKNNEVSFSQIKP [chain 1 G12L]
2,0.55,chain 1 QDPGVICGAVFGCIFLALVIVTVGGFIFWRKKRKDAKNNEVSFSQIKP [chain 1 G16L]
3,0.5,chain 1 QDPGVICLAVFGCIFGALVIVTVGGFIFWRKKRKDAKNNEVSFSQIKP [chain 1 G8L]
